One block for each binder: values may come before it.
Experiments:
mouse 4-1BB = target: T1, mouse 4-1BB (mouse, UniProt P20334); experiment: other, cells transiently overexpressing target
T1 chain: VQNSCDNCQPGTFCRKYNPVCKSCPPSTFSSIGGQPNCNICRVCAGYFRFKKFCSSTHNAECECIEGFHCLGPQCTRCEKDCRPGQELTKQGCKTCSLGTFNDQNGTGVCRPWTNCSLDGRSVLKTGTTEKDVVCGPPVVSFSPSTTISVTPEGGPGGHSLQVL

mouse CD40 = target: T2, mouse CD40 (mouse, UniProt P27512); experiment: other, cells transiently overexpressing target
T2 chain: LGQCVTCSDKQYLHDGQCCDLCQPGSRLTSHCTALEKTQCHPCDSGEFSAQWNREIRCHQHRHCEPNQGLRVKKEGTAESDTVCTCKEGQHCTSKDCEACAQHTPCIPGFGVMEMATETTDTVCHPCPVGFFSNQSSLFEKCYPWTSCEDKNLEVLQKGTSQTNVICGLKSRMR

binding result (mouse 4-1BB): no binding
B1: GEN1042 (CD137 arm) (antibody, V domains shown)
VH: EVQLVESGGGLVQPGRSLRLSCTASGFSLNDYWMSWVRQAPGKGLEWVGYIDVGGSLYYAASVKGRFTISRDDSKSIAYLQMNSLKTEDTAVYYCARGGLTYGFDLWGQGTLVTVSS
VL: DIVMTQSPSSLSASVGDRVTITCQASEDISSYLAWYQQKPGKAPKRLIYGASDLASGVPSRFSASGSGTDYTFTISSLQPEDIATYYCHYYATISGLGVAFGGGTKVEIK

binding result (mouse CD40): no binding
B2: GEN1042 (CD40 arm) (antibody, V domains shown)
VH: EVQLVQSGAEVKKPGASVKVSCKTSGYTFTEYIMHWVRQAPGQGLEWMGGIIPNNGGTSYNQKFQGRVTMTVDKSTSTGYMELSSLRSEDTAVYYCTRREVYGRNYYALDYWGQGTLVTVSS
VL: DIQMTQSPSSLSASVGDRVTITCSASQGINNYLNWYQQKPGKAVKLLIYYTSSLHSGVPSRFSGSGSGTDYTFTISSLQPEDIATYYCQQYSNLPYTFGGGTKVEIK
